Literature values in US6552168B1, “Gamma-ketoacid tetrapeptides as inhibitors of caspase-3” (Merck Frosst Canada & Co., priority 1998, dated 2003).

Assays:
caspase-1 = target: T1, caspase-1 (Homo sapiens, UniProt P29466)
T1 sequence (P29466 120-297 limits assumed): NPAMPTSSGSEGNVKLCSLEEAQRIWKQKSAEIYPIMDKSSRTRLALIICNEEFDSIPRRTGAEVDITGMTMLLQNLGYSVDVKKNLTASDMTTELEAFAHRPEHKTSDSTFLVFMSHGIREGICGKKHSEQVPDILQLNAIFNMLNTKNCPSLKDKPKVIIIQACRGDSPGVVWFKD
T1 sequence (P29466 317-404 limits assumed): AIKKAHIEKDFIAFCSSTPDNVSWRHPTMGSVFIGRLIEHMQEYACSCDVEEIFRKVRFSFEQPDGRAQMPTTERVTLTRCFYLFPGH

caspase-3 = target: T2, caspase-3 (Homo sapiens, UniProt P42574)
T2 sequence (P42574 29-175 limits assumed): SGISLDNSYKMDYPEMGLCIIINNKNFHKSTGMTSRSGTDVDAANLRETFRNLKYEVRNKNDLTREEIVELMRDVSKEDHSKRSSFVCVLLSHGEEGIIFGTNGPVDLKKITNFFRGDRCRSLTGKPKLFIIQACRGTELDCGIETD
T2 sequence (P42574 176-277 limits assumed): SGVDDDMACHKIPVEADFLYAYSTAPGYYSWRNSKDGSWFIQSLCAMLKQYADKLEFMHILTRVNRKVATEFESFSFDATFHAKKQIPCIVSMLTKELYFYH

For Ac-YVAD-CHO, the Ki (caspase-1) is given as less than 0.001 µM, the “kon caspase-1” value (caspase-1; slow-binding time-dependent inhibition) is given as 380000 M⁻¹ s⁻¹ and the Ki (caspase-3) is given as 12 µM.
